Data reported in paper PMC8484547, “The NAM/ATAF1/2/CUC2 transcription factor PpNAC.A59 enhances PpERF.A16 expression to promote ethylene biosynthesis during peach fruit ripening”.

Molecular target: PpERF.A16::HIS (Prunus persica? (peach), UniProt A0A251PUJ2 1-382)
Assay: BLI; response rises with protein concentration; BLI: PBS (1.4 mM KH2PO4, 2.7 mM KCl, 4.3 mM Na2HPO4, 137 mM NaCl, 0.02% Tween-20, pH 7.2), temperature not stated; EMSA: 5 mM MgCl2, 2.5% glycerol, 0.05% NP-40, 1 mg (so in the source) poly(dI-dC), 200 nM probe, 1 ug protein in 20 ul, 20 min, room temperature
Settings: protein: recombinant; tags: HIS, trigger factor fusion (pCold-TF); label: biotin

Chain of PpERF.A16::HIS (A0A251PUJ2 entry or part of it): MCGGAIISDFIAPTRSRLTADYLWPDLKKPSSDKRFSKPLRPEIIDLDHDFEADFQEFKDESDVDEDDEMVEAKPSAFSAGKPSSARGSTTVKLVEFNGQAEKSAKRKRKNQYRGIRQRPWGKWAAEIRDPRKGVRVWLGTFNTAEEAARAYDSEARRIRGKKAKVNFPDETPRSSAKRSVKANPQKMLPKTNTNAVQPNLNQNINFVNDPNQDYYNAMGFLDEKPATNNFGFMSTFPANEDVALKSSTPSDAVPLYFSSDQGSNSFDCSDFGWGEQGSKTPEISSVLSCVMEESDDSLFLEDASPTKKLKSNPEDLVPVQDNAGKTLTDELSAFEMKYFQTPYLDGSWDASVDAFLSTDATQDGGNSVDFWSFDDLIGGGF

Binder	binding result
PpACS1 promoter probe (dsDNA) DNA 1: ACACCATCTCAACCATTGCCCCCACAATTGATAGCTTGC DNA 2: GCAAGCTATCAATTGTGGGGGCAATGGTTGAGATGGTGT	binds
PpACO1 promoter probe(s) (dsDNA) DNA 1: AGTCAAAAGCTTTCGGCGTCAAGATTCCATTG DNA 2: CAATGGAATCTTGACGCCGAAAGCTTTTGACT	binds
PpendoPGM promoter probe(s) (dsDNA) DNA 1: CGTAAGGTCATTACGGCGCCGTTTCCCTTTTTAATTGGCG DNA 2: CGCCAATTAAAAAGGGAAACGGCGCCGTAATGACCTTACG	binds
